Experimental data published in patent US20250249039A1 (published 2025).

Target: T1, PRAME peptide on HLA-A*02:01 (human)
T1 peptide: SLLQHLIGL
Experiment: multimer staining

B1: PRAME-425-358 (TCR, V domains shown)
Valpha: QQPVQSPQAVILREGEDAVINCSSSKALYSVHWYRQKHGEAPVFLMILLKGGEQKGHDKISASFNEKKQQSSLYLTASQLSYSGTYFCGTEGTGDYKLSFGAGTTVTVRA
Vbeta: EAQVTQNPRYLITVTGKKLTVTCSQNMNHEYMSWYRQDPGLGLRQIYYSMNVEVTDKGDVPEGYKVSRKEKRNFPLILESPSPNQTSLYFCASSAGTGGHEQYFGPGTRLTVT
B1: recognises.
